Data as given in US7521230B2, “Nucleic acid encoding a Brain Derived Tau Kinase polypeptide and methods of use thereof” (Board of Regents of the University of Nebraska, priority 2002, dated 2009).
pIC50: −log10 of the molar value.

Tests used:
[1] = target: T1, BDTK (Homo sapiens, UniProt Q5TCY1); experiment: BDTK-mediated tau phosphorylation in vitro; format: biochemical
T1 construct: made in house

[2] = target: T1, BDTK; experiment: BDTK phosphorylation (autophosphorylation) in vitro; format: biochemical
Method: Purified recombinant human tau (Calbiochem) was phosphorylated by purified BDTK(38-319) and BDTK(52-319) in vitro. Briefly, 1 μg of tau protein and 1 μg of BDTK mutants were incubated in buffer A (50 mM Tris-Cl, pH 7.5, 5mM Mg acetate, 1 mM EDTA, 1 mM DTT, 0.1 mM ATP, 2 μCi [γ-^32P]ATP) or buffer B (100 mM Mes-Na, pH 6.5, 5 mM Mg acetate, 1 mM EGTA, 1 mM DTT, 0.2 mM ATP, and 2 μCi[γ-^32P]ATP). The reaction was stopped at 30, 60, 120, and 180 minutes by addition of Laemmli sampling buffer. Samples were then subjected to SDS-PAGE and autoradiography.
An assay was conducted to identify promoters and inhibitors of BDTK activity. BDTK peptides may be used to inhibit BDTK activity. Two synthetic peptides (N21: […] (SEQ ID NO:21) and AA21: […]) (SEQ ID NO:22) are synthesized to test if N21 and A21, where conserved two glycine residues are substituted with alanine, has inhibitory effect of BDTK kinase activity in vitro. Increasing amounts of peptides (0-1 mM) were tested for BDTK and tau phosphorylation, in vitro. […] AA21 mutated peptide increased both BDTK (AA21-BDTK, from 30 to 300 μM) and tau phosphorylation (AA21-tau, from 30 μM to […]) in dose response manner.

[3] = tested on: BDTK promoter (CpG1.2-luciferase) in HEK 293 cells; experiment: CpG1.2-luciferase BDTK promoter reporter assay in HEK293 cells; format: cell-based, human; details: A-beta 1-42 0-30 μg/ml, 24 hours
Method: A luciferase assay was used to determine promoter activity. To conduct this assay, 1.2 kb and 0.6 kb promoter sequence were inserted into pGL3-control vector (Promega, named as CpG1.2 and CpG0.6, respectively). The luciferase constructs were co-transfected with reference reporter gene (thymidine kinase promoter TK-RL plasmid, Promega) into PC12 and HEK293 cells using lipofection method (GenePorter, Gene Therapy Systems, Inc.). At 48 hours after DNA transfection, each luciferase activity was measured using Dua1-luciferase kit (Promega). […] CpG1.2-luciferase vector was tested for its promoter activity by increasing dose of extracellular beta-amyloid peptide (A-beta) 1-42 (0-30 μg/ml) for 24 hours. CpG1.2 luciferase activities (PC12-CpG or HEK-CpG) are 8- to 10-fold higher than control activities (PC12-control or HEK293-control) without beta-amyloid stimulation.

[4] = target: CDK-5 (Homo sapiens, UniProt Q00535); details: cited from earlier work
[5] = target: GSK-3beta (Homo sapiens, UniProt P49841); details: cited from earlier work
Chain of GSK-3beta (P49841 whole entry, species assumed): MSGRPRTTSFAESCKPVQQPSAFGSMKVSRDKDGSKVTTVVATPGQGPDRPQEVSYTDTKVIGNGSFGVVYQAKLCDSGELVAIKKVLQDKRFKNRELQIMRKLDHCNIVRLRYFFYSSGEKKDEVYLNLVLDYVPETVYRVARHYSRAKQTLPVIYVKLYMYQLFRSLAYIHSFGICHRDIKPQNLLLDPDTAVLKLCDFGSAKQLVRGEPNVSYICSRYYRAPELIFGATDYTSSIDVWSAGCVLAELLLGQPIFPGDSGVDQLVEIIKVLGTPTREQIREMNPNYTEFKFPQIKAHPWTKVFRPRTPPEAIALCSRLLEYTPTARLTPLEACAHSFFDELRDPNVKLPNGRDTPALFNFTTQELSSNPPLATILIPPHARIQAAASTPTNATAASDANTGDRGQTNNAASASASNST

T1 sequence (Q5TCY1 38-319): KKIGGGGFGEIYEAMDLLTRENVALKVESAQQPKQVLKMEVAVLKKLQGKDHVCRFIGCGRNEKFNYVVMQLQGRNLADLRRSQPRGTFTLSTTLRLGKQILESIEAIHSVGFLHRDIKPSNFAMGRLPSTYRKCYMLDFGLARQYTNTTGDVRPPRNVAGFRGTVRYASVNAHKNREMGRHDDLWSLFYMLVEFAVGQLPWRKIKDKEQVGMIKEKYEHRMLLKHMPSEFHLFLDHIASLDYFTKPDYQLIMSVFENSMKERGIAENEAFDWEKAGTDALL
Chain of CDK-5 (Q00535 whole entry, species assumed): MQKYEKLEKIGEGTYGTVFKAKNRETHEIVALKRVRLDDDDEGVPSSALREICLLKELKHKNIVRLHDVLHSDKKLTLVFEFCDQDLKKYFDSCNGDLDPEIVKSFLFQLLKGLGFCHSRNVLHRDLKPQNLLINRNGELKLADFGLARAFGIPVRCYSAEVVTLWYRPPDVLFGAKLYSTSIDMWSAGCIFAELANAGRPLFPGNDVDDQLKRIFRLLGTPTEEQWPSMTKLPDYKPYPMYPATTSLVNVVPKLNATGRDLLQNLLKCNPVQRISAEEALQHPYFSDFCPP
Chain of CDK-5 (Q15078 whole entry partner, species assumed): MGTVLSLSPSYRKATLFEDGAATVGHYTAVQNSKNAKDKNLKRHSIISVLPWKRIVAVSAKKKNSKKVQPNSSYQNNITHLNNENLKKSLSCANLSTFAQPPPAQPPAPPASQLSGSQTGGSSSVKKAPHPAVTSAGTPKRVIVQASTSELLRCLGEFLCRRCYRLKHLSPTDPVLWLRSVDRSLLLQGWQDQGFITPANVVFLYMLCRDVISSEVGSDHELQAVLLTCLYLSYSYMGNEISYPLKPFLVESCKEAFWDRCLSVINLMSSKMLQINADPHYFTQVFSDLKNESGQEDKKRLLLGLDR

KDRWKVVKKIGGGGFGEIYEA [N21]
effect on tau phosphorylation (N21-tau) ([1]; peptide from 300 μM to 1 μM): partially inhibited
inhibition of BDTK phosphorylation ([2]; peptide 100 μM-1 mM): up to 70%

Beta-amyloid: extracellular beta-amyloid peptide (A-beta) 1-42
effect on CpG1.2-luciferase activity [3]: weakly stimulated

CC(C)[C@H](CO)Nc1nc(Nc2cccc(Cl)c2)c2ncn(C(C)C)c2n1 [puralanol A]
pIC50 [4]: 7.12
pIC50 [5]: 4.89

KDRWKVWKKIAGAGFGEIYEA [AA21]
effect on tau phosphorylation (AA21-tau) ([1]; peptide from 30 μM to 1 μM, dose response manner): increased
effect on BDTK phosphorylation (AA21-BDTK) ([2]; peptide from 30 to 300 μM, dose response manner): increased
